Data: the supplement of paper PMC9170038

Assays:
MS2 coat protein [1] = test: apparent KD of MS2 coat protein, switch ON state; designed switch direction (-1 OFF switch, 1 ON switch): 1; higher = weaker reporter binding; details: FMN input: 0 or 200 uM; Eterna round: R93 (includes R88 designs)
Summary of the method: (§1)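 Illumina sequencing clusters were used for on-chip transcription of designed RNA switches. Titration with SNAP-549-labelled MS2 coat protein followed, in twofold steps from 0.7 or 1.5 nM to 3 µM in 100 mM Tris-HCl pH 7.5, 80 mM KCl, 4 mM MgCl2, without or with constant ligand. Apparent KD is each design's median of fits to normalised cluster binding curves.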

MS2 coat protein [2] = test: apparent KD of MS2 coat protein, switch OFF state (with FMN for OFF switches, without FMN for ON switches); designed switch direction (-1 OFF switch, 1 ON switch): 1; higher = weaker reporter binding; details: FMN input: 0 or 200 uM; Eterna round: R93 (includes R88 designs)
Summary of the method: as §1

Sequence	apparent KD of MS2 coat protein (MS2 coat protein [1])	apparent KD of MS2 coat protein (MS2 coat protein [2])
AGAAAACAUGAGGAUCACCCAUGUCAAAUAAGUCAAGGAUAUGGGACUCCGCGAGAGUCGCCAGAAGGUGAGAAAA [Aatrara]	17.5 nM	49.5 nM
AGAAAACAUGAGGAUCACCCAUGUGAUAAUAUGGGAGGAUAUACGAAGACGAAAGUCGACGUAGAAGGCCUAAAGA [Garnet 48]	35.3 nM	70.8 nM
AGAAAGAAUAGAGAGGAUAUCUAUAAGAAAACAUGAGGAUCACCCAUGUAAAAGAAAAGAAAAUGGGAGAAGGCUCAUAAGAAAG [JL Skelter Mod 6 In the Red]	186 nM	71.6 nM
AGAAAUAAAAGACAGGAUAUCCAAAAGAAAACAUGAGGAUCACCCAUGUAAAAGAAAAUAAAAUGGGAGAAGGGUCAAAAUAAAG [Topaz 2]	11 nM	36.6 nM
AGAAAUAAAAGAGAGGAUAUCCAAAACAAAACAUGAGGAUCACCCAUGUGAAAGAAAAUAAAAUGGGAGAAGGCUCAAAAUAAAG [Topaz 8]	8.35 nM	70.4 nM
AGAAAUAAAAGAGAGGAUAUUCAAAAAGGGACAUGAGGAUCACCCAUGUAAAAGAAAAUAAAAUGGGAGAAGGCUCAAAAUAAAG [80%, More Helter Skelter 2]	85.5 nM	61.7 nM
AGAAAUAAACCUCAGGAUAUGGGUAAGAAAACAUGAGGAUCACCCAUGUAAAAGAAAAUAAAAAACCAGAAGGGAGAAAAUAAAG [Reversing G segment in JL's winner (80%) Variant 2]	31.3 nM	41.3 nM
AGAAAUAAAUCUCAGGAUAUGGGUAAAUAAACAUGAGGAUCACCCAUGUAAAAGAAAAUAAAAAACCAGAAGGGAGAAAAUAAGA [Designing denovo 2]	16.2 nM	39.2 nM
AGAAGACAUGAGGAUCACCCAUGUGGGAAUAUGGGAGGAUAUACAAAGACGAGAGUCAGAGUAGAAGGCCUAGGAC [salish99-ss1-94]	30.5 nM	81 nM
AGAAUAAAAAGACAGGAUAUCCAAAAGAAAACAUGAGGAUCACCCAUGUAAAGAAAAGAAAAAUGGGAGAAGGGUCAAAAUAAGA [Mat - Same State 2 - JL mod - D59]	20.4 nM	56.3 nM
AGACAUAACAGAGAGGAUAUCCAAAAGAAAACAUGAGGAUCACCCAUGUGAAAGAAAAUAAAAUGGGAGAAGGCUCACAUACAGA [Topaz 37]	20 nM	39 nM
AGCAUAGACAGAGAGGAUAUCCACGAGACAACAUGAGGAUCACCCAUGUGAAAGAGAAUACGAUGGGAGAAGGCUCGCGAUACGA [Topaz 49]	13.4 nM	19.7 nM
AGCAUAGACAGAGAGGAUAUCCACGAGACAACAUGAGGAUCACCCAUGUGAUAGAGAAUACGAUGGGAGAAGGCUCGCGGUACGA [Topaz 50]	13.9 nM	61.3 nM
AGGAAACAUGAGGAUCACCCAUGUAAAAAAUAUGGAGGAUAUGGAAACACGAAAGUGAAACCAGAAGGCUAAAAAA [77%, Mat - Mod of Eli, 24]	17 nM	26.9 nM
AGGAAACAUGAGGAUCACCCAUGUAAAAAUAUGGGAGGAUAUACAAAGACGAAAGUAAGAGUAGAAGGCCUAAAAG [Garnet 16]	31.3 nM	150 nM
AGGAAACAUGAGGAUCACCCAUGUAAAAAUAUGGGAGGAUAUAGAAAGACGAAAGUCAAACUAGAAGGCCUAAAAG [Garnet 5]	16.1 nM	83.3 nM
AGGAAACAUGAGGAUCACCCAUGUAAAAAUAUGGGAGGAUAUGGAAACACGAAAGUGAAACCAGAAGGCCCGAAAA [77%, Mat - Mod of Eli, 18]	17.1 nM	23.9 nM
AGGAAACAUGAGGAUCACCCAUGUAAAAGGUGGGUAGGAUAUGCGAAAAGAAAAAGAAAAGCAGAAGGGCCAAGAA [something completely different]	41.9 nM	133 nM
AGGAAACAUGAGGAUCACCCAUGUAGAAAAAUGGGAGGAUAUACAAAGACGAAAGUCAAAGUAGAAGGCCUAAAAG [76%, Meechl, 6]	14.5 nM	45.8 nM

Sequence	apparent KD of MS2 coat protein (MS2 coat protein [1])	apparent KD of MS2 coat protein (MS2 coat protein [2])
AGGAAACAUGAGGAUCACCCAUGUAGAAAUAUGGGAGGAUAUACAAAGACGAAAGUCAAAGUAGAAGGCCUAAAAG [76%, Meechl 1]	22.8 nM	63 nM
AGGAAACAUGAGGAUCACCCAUGUCUAAAUAUGGGAGGAUAUGCACAAAAGGAAAUAACUGCAGAAGGCCUAAAAA [62%, Redo, 4]	17.3 nM	103 nM
AGGAGACAUGAGGAUCACCCAUGUGAGAAGAGGCGAGGAUAUCGAAAGAAAGAAGAGAAACGAGAAGGCGCGAGAA [salish99-SS1-017]	15 nM	30.3 nM
AGGAGACAUGAGGAUCACCCAUGUGAGAAGAGGCGAGGAUAUCGAAAGAAAGAAGAGAAACGAGAAGGCGCGAGGC [salish99-SS1-031]	27 nM	23.5 nM
AGGAGACAUGAGGAUCACCCAUGUGCACGUGGACGAGGAUAUGCUAGUAGAAGAUAGAAUGCAGAAGGCGUAAGAA [Mod of JR]	48.4 nM	29.9 nM
AGUCCACAUGAGGAUCACCCAUGUCUGGAGAAGACAGGAUAUAAGGAAAAAAAAAAAAACUUAGAAGGGUCAAAAA [Bexeusisus]	26.8 nM	49.5 nM
AUAAAACAUGAGGAUCACCCAUGUAGACAUAUGGGAGGAUAUACUAGAUCGAAAGAUCUAGUAGAAGGCCUUUAUA [JL Mod of Eli 8]	19.2 nM	54.2 nM
AUAAAACAUGAGGAUCACCCAUGUGAAAACGUGGGAGGAUAUACGUAGACGAAAGUCGACGUAGAAGGCCUAAAAG [Same State 1.4n.1 (Mat - Mod of Eli - )]	119 nM	197 nM
AUAAAAGAAGCGAAGGAUAUCCAAAAACCAACAUGAGGAUCACCCAUGUAAAGAAAGAAAAAAUGGGAGAAGGUCGCAAAGAAUA [73%, More Fisker Same State 2, D3, 8]	11.8 nM	17.7 nM
AUAAAAGAAGCGAAGGAUAUCCAAAGAACCACAUGAGGAUCACCCAUGUAAAGAAAGAAAAAGUGGGAGAAGGUCGCAAAGAAUA [73%, More Fisker Same State 2, D3, 5]	26.6 nM	53.7 nM
AUAAAUAAAAUCGAGGAUAUCCAAAAAAAAACAUGAGGAUCACCCAUGUAAAAGAAAAUAAUAUGGGAGAAGGCGAAAAAUAAAU [SS2 M 5]	36.8 nM	59.2 nM
AUAAAUAAUGGUAAGGAUAUCCAAAAGAAAACAUGAGGAUCACCCAUGUAAAAGAAAAUAGUGUGGGAGAAGGUACCAUAUAAAU [SS2 M 15]	18.6 nM	41.6 nM
AUAACACAUGAGGAUCACCCAUGUAGAAACAAGUCAGGAUAUGCGACCUCAUGAAAUAAAGCAGAAGGGACACUAA [SS 1 Tesla 5]	31.5 nM	150 nM
AUAAGACAUGAGGAUCACCCAUGUAUUAGAGCAUGAGGAUAUAUGAAUAGUAAUAGGAGGAUAGAAGGCAUGGUUG [JR_SS001_Sub1218]	92.6 nM	138 nM
AUAAUAAUAAGAUAGGAUAUACUAAAGUAAACAUGAGGAUCACCCAUGUAAAGAAAAAAACUCAUGUAGAAGGGUCAUAAAUAAA [moonwalk 1]	46.3 nM	48.6 nM
AUAUAUAAAAGGUAGGAUAUUCUAAAAUAAACAUGAGGAUCACCCAUGUAAAAAAAGAAACUCAUGGAGAAGGACCAUAUAUAUA [ss2 6th modifying Eli's mod of Tesla]	31.5 nM	44.5 nM
AUAUAUAUAAGGUAGGAUAUCCAAUAAACCACAUGAGGAUCACCCAUGUAAAGAAAGAAAAAAUGGGAGAAGGACCAUAUAUAUA [77%, More Tesla, 6]	15.4 nM	27.5 nM
AUAUAUAUAAGGUAGGAUAUCCAAUAAUCCACAUGAGGAUCACCCAUGUAAAGAAAGAAAAAGUGGGAGAAGGACCAUAUAUAUA [77%, More Tesla, 7]	17.6 nM	34 nM
AUAUAUAUAAGGUAGGAUAUGCUAAAGUAAACAUGAGGAUCACCCAUGUAAAGAAAGAAACUCAUGUAGAAGGGCCAUAUAUAUA [viburnum 6]	163 nM	408 nM
